Experimental findings from patent US20110166081A1 (UNIVERSITY OF IOWA RESEARCH FOUNDATION, published 2011) are described below.

For this experiment, the target named is T1, mouse integrin alpha7beta1 from digitonin-solubilized skeletal muscle (mouse, UniProt Q61738 34-1135; P09055 21-801, limits assumed).
T1 construct: also called integrin α7β1; alpha7beta1 integrin
The experiment is described as follows: WGA lectin affinity chromatography and sucrose gradient fractionation of digitonin-solubilized muscle, immunoblot.

T1 sequence (Q61738 other isoform, or with tags, fused parts or gaps limits assumed, chain 1 of 2): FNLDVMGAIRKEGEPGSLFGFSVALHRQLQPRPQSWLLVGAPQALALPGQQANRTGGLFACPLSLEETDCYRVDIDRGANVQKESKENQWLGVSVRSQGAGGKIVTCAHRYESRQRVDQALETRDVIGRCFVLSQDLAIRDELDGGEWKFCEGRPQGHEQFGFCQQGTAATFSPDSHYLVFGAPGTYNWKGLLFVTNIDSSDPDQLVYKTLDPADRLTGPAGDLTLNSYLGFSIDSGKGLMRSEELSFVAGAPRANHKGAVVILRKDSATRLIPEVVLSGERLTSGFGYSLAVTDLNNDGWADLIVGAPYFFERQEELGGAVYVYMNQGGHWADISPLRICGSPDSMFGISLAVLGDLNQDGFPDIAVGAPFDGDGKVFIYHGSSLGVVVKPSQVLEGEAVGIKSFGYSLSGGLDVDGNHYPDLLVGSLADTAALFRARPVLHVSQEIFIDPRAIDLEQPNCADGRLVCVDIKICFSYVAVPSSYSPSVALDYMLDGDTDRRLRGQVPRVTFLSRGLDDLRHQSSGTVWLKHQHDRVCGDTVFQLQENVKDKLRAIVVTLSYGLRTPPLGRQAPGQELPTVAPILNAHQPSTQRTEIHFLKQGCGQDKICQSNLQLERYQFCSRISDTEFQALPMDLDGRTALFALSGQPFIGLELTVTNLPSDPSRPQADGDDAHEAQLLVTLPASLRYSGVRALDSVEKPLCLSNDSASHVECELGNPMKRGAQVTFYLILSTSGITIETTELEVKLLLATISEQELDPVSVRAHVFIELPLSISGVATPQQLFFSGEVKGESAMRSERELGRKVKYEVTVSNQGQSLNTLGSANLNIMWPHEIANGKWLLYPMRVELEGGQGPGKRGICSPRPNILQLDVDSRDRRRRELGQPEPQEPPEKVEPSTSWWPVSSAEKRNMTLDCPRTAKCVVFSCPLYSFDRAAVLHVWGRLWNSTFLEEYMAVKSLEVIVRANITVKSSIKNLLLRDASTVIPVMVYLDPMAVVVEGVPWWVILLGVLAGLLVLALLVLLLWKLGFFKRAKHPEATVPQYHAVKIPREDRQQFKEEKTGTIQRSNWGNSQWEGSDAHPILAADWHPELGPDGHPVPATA
T1 sequence (P09055 other isoform, or with tags, fused parts or gaps limits assumed, chain 2 of 2): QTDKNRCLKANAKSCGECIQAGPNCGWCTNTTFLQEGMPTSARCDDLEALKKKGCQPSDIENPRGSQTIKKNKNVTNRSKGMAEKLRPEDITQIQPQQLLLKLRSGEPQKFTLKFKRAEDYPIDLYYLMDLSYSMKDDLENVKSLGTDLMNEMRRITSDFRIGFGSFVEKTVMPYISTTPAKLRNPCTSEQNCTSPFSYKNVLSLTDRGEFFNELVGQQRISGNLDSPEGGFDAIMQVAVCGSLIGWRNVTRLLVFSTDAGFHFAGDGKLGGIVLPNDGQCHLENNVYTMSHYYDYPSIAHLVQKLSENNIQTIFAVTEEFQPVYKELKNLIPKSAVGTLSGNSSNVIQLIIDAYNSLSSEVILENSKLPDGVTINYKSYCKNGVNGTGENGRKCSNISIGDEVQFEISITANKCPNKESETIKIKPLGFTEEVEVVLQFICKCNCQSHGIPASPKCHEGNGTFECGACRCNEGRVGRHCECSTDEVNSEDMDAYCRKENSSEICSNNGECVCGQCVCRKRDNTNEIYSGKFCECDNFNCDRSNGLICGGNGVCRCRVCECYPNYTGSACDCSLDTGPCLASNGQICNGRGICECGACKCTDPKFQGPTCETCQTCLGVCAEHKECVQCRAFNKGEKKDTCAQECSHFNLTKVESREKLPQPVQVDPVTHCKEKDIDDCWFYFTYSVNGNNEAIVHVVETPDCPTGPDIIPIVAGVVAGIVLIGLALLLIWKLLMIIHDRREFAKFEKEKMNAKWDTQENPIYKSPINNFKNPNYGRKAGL
Description: Characterization of skeletal muscle dystroglycan and integrin α7 complexes. Sucrose gradient fractionation of the DGC and the integrin α7 complex from wild-type (A, C), DG-deficient (B) and integrin α7-null (D) skeletal muscle solubilized with digitonin. Glycoprotein preparations enriched by WGA-chromatography were fractionated by sucrose gradient centrifugation. Equal volumes of fractions were loaded on an SDS-PAGE gel. The blot generated from this was probed with antibodies against: integrin α7 (α7), integrin β1(β1), α-DG (α-DG), α-sarcoglycan (α-SG), β-sarcoglycan (β-SG) and γ-sarcoglycan (γ-SG).
Lectin affinity chromatography and sucrose gradient fractionation. Total muscle homogenates in TBS (50 mM Tris-Cl pH 7.4, 150 mM NaCl) were solubilized with 1% digitonin. After centrifugation at 140,000×g for 37 min, solubilized proteins in the supernatant were mixed with wheat germ agglutinin (WGA)-agarose beads (Vector Laboratories) and rotated end-over-end at 4° C. for 2 hours. WGA-bound proteins were eluted with TBS containing 0.3 M N-acetyl-D-glucosamine and 0.1% digitonin. The eluant was applied to a 5-30% sucrose gradient and centrifuged at 215,000×g for 90 min. Fractions (1 ml) were collected from the top of the gradient and analyzed by SDS-PAGE.

B1: mouse dystroglycan from digitonin-solubilized skeletal muscle (receptor)
chain 1: HWPSEPSEAVRDWKNQLEASMHSVLSDFQEAVPTVVGIPDGTAVVGRSFRVSIPTDLIASSGEIIKVSAAGKEALPSWLHWDPHSHILEGLPLDTDKGVHYISVSAARLGANGSHVPQTSSVFSIEVYPEDHNEPQSVRAASSDPGEVVPSACAADEPVTVLTVILDADLTKMTPKQRIDLLNRMQSFSEVELHNMKLVPVVNNRLFDMSAFMAGPGNAKKVVENGALLSWKLGCSLNQNSVPDIRGVETPAREGAMSAQLGYPVVGWHIANKKPTLPKRLRRQIHATPTPVTAIGPPTTAIQEPPSRIVPTPTSPAIAPPTETMAPPVRDPVPGKPTVTIRTRGAIIQTPTLGPIQPTRVSEAGTTVPGQIRPTLTIPGYVEPTAVITPPTTTTKKPRVSTPKPATPSTDSSTTTTRRPTKKPRTPRPVPRVTTKAPITRLETASPPTRIRTTTSGVPRGGEPNQRPELKNHIDRVDAWVGTYFEVKIPSDTFYDNEDTTTDKLKLTLKLREQQLVGEKSWVQFNSNSQLMYGLPDSSHVGKHEYFMHATDKGGLSAVDAFEIHVHKRPQGDKAPARFKARLAGDPAPVVNDIHKKIALVKKLAFAFGDRNCSSITLQNITRG
chain 2: SIVVEWTNNTLPLEPCPKEQIIGLSRRIADENGKPRPAFSNALEPDFKALSIAVTGSGSCRHLQFIPVAPPSPGSSAAPATEVPDRDPEKSSEDDVYLHTVIPAVVVAAILLIAGIIAMICYRKKRKGKLTLEDQATFIKKGVPIIFADELDDSKPPPSSSMPLILQEEKAPLPPPEYPNQSMPETTPLNQDTVGEYTPLRDEDPNAPPYQPPPPFTAPMEGKGSRPKNMTPYRSPPPYVPP
notes: Native protein, WGA-enriched, within the dystrophin-glycoprotein complex; also called DG; DGC
With B1, the binding result is listed as “no binding”.
